Assay results: PMC11922929, “Functional recoding of Chlamydomonas reinhardtii thioredoxin type-h into photosynthetic type-f by switching selectivity determinants” (Frontiers in Plant Science, 2025)

Columns and labels:
[1] = target: Chlamydomonas reinhardtii fructose-1,6-bisphosphatase (CrFBPase) (Chlamydomonas reinhardtii)
CrFBPase = target: T1, CrFBPase (Chlamydomonas reinhardtii, UniProt A8IKQ0); assay: coupled spectrophotometric assay of FBP hydrolysis (NADP+ reduction at […] nm); format: biochemical; conditions: 0.6 mM FBP, 10 mM MgCl2, 30 mM Tris pH 7.9, 20 °C; FBPase pre-incubated with 1 mM DTT, with or without 50 µM thioredoxin
T1 construct: gene CHLRE_12g510650v5; recombinant, N-terminal poly-histidine tag, pET plasmid, E. coli BL21(DE3), Ni-NTA purified
T1 sequence (A8IKQ0 29-415): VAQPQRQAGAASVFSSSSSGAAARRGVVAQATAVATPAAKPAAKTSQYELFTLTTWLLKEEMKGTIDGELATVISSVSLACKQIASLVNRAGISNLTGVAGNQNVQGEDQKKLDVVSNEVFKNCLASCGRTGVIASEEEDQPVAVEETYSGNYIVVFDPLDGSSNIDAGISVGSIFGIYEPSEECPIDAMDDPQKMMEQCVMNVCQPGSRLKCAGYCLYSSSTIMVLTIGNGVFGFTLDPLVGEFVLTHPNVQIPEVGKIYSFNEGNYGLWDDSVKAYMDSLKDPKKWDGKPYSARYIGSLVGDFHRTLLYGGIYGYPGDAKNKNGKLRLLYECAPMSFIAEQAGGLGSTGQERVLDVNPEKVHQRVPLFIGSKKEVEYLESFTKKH

With “TRXχ1 (chimera 1; TRXh1-K49,K69,K70,K78,K99) (from UniProt P80028 1-113) (enzyme)” the FBPase activity (coupled spectrophotometric assay, NADP+ reduction at 340 nm, initial velocity) after 5 min pre-incubation with 1 mM DTT and 50 µM TRXχ1, 20°C, n=4 [1] was 172 ΔAbs/min and the fold increase of FBPase activity after pre-incubation with 1 mM DTT and 50 µM TRXχ1 [1] was 9.8 fold.

In the case of “Chlamydomonas reinhardtii thioredoxin f2 (CrTRXf2) (enzyme)”, the FBPase activity (coupled spectrophotometric assay, NADP+ reduction at 340 nm, initial velocity) after 5 min pre-incubation with 1 mM DTT and 50 µM TRXf2, 20°C, n=4 [1] is reported as 106 ΔAbs/min and the fold increase of FBPase activity after pre-incubation with 1 mM DTT and 50 µM TRXf2 [1] is reported as 6 fold.

`O=P(O)(O)OC[C@H]1OC(O)(COP(=O)(O)O)[C@@H](O)[C@@H]1O` (stereo partly shown) [FBP] was tested, and the “coupled spectrophotometric assay of FBP hydrolysis (NADP+ reduction at 340 nm)” value (CrFBPase) was “The activity of FBPase was determined in the direction of FBP hydrolysis”.

B1: Chlamydomonas reinhardtii thioredoxin h1 (CrTRXh1) (enzyme)
chain: MGGSVIVIDSKAAWDAQLAKGKEEHKPIVVDFTATWCGPCKMIAPLFETLSNDYAGKVIFLKVDVDAVAAVAEAAGITAMPTFHVYKDGVKADDLVGASQDKLKALVAKHAAA
For B1, the FBPase activity (coupled spectrophotometric assay, NADP+ reduction at 340 nm, initial velocity) after 5 min pre-incubation with 1 mM DTT and 50 µM TRXh1, 20°C, n=4 [1] was 59 ΔAbs/min and the fold increase of FBPase activity after pre-incubation with 1 mM DTT and 50 µM TRXh1 [1] was 3.4 fold.
